# Measured values reported in PMC4328881.
# Key:
# [1] = target: full-length 26 kDa (227 amino acids) OSM (human); test: SPR
# [2] = target: 22 kDa (196 amino acids) OSM (human) (UniProt P13725); test: SPR
# Sequence of 22 kDa (196 amino acids) OSM (human) (P13725 26-221): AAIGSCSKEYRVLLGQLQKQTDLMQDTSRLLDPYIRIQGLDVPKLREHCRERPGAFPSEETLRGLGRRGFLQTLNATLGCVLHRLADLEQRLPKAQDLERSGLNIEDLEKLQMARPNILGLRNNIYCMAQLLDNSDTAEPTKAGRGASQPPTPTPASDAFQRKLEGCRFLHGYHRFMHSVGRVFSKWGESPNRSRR
# Sequence of fibronectin, P02751 32-2477 (natural protein; ; other documents disagree on this pair) (P02751 32-2477): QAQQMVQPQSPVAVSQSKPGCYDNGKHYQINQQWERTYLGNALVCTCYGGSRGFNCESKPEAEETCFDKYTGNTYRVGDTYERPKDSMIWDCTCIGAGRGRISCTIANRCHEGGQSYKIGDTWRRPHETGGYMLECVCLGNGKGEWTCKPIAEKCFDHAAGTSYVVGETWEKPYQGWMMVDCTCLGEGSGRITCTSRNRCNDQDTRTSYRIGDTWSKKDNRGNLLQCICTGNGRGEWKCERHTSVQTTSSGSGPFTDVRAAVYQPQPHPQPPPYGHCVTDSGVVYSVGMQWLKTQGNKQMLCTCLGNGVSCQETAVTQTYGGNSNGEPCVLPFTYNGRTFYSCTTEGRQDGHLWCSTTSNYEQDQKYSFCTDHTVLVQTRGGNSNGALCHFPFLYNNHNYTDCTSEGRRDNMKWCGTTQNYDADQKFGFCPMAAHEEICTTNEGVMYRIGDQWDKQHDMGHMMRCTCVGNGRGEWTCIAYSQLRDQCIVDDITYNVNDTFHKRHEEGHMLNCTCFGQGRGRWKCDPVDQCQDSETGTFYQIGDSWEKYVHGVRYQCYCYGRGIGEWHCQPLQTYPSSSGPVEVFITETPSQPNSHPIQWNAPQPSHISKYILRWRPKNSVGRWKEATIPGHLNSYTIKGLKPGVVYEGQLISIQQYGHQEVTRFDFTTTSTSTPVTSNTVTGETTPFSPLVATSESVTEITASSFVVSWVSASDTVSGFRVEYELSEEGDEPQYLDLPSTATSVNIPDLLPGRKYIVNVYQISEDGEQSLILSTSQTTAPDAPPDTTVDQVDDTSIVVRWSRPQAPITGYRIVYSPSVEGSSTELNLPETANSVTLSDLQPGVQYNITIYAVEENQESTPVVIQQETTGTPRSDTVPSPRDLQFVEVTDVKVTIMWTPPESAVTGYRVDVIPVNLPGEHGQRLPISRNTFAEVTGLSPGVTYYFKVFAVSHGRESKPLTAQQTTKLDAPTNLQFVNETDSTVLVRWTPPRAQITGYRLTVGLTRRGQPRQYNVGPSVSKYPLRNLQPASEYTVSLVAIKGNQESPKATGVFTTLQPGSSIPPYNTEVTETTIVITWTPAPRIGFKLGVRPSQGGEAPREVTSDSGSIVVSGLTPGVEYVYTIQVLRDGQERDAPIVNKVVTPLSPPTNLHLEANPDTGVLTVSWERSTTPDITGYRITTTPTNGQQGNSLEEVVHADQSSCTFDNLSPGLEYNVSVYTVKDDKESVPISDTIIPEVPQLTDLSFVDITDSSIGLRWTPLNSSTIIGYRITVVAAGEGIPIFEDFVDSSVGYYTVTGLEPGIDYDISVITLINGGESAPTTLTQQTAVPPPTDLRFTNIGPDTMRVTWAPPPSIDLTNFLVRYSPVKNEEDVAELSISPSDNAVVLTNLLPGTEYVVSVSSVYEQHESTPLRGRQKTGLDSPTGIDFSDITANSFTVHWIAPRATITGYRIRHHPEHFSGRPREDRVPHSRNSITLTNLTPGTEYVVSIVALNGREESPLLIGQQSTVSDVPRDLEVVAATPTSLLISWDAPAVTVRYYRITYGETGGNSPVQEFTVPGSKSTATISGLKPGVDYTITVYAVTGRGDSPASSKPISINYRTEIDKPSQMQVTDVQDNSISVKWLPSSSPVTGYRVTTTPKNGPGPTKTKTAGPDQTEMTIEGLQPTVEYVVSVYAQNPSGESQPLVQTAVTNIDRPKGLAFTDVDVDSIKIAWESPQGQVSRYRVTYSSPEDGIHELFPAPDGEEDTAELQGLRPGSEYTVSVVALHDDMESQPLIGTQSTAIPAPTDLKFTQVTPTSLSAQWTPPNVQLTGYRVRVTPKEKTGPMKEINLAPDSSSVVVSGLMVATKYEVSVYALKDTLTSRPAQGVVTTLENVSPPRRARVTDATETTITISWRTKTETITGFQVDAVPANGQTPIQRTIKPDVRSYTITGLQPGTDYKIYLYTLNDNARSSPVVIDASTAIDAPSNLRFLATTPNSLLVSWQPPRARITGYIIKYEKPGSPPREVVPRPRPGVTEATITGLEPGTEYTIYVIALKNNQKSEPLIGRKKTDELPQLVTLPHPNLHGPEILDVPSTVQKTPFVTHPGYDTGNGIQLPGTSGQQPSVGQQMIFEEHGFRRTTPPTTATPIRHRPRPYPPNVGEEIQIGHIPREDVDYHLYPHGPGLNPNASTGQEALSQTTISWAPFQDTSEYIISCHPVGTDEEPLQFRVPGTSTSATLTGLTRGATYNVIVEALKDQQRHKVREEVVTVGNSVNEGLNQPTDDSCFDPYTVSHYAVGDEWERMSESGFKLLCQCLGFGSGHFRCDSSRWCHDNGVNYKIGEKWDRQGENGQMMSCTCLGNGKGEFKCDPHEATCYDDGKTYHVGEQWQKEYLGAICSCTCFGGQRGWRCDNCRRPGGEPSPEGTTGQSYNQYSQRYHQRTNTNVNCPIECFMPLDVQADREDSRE
Substance,Kd [1],Kd [2]
"fibronectin, P02751 32-2477 (natural protein; ; other documents disagree on this pair)",1170 µM,
laminin (complex),0.844 µM,0.936 µM
